Results: the DeepSol protein solubility set

Assay: soluble on expression in E. coli; label from the status in PepcDB or PDB records

Sequence	soluble on expression in E. coli
MSLSYPWPDAGTALNAISTPMPVIDEDRLAANILRAQSYLDAHGKTFRPHIKTHKIPAIAKQQLQAGAIGINCQKVSEAEVFADAGFEDILITYNILGAAKLSRLKALNARIGRLSVVADSAVTIAGLADTFDAARPLAVLVECDTGGKRCGVQTPEAALALAEQIVSASGLIFRGILTYPAPGGAEMVEKFIRETMALLATKGIDCPVRSSGGSPDFYSAHLVASATEHRAGTYIYNDRSMLRAGHCSAGDLAMHVLATVVSKPTADRAVLDSGSKALTSDLLGFNDYGLLEGYEGAKIISLSEEHAVVDLSGCTGARPEIGDVVQVVPNHTCVVSNLFDRMVFHRNGVVTRVEQVAARGTVWEGHHHHHH	soluble
MSLTASVAAAPDPASLAPELAHIAPALKAEILAQALPYIRKFHGKTIVIKYGGNAMTEEKLKHGFARDVILLKLVGMNPVVVHGGGPQIDDALKKVGKTGTFIQGMRVTDEETMEVVEWVLGGEVQQDIVMLINQYGGQAVGLTGKDGGLIRAKKLQMPDREKPGQFIDIGFVGDIETINPAVVRALQDDAFIPVISPIGFSDDGQAYNINADVVAGKMAEILKAEKLVMMTNIPGVLDKQGNLLTDLSAREIDELFADGTISGGMLPKISSALDAAKSGVHSVHIIDGRIEHSLLLEILTEQAFGTMIRSHEGHHHHHH	soluble
MSLTAYKRVLLKLSGESLMGAQQYGIDPNRLADYASDIKEACAMGVQIGIVIGGGNIFRGVSGAAKGFDRVKGDQMGMLATVINSLALSSALEGVGVKTKVLTAVRMEPIGEFYNKWHAIELLEQGYVTIFSCGTGNPFFTTDTGSSLRGIEIEADAMLKGTRVDGIYTADPEKDPSATKFDRITYDEIYARGLKVMDLTATAMCMENNLPIVVFDMDTPGNLLKVLRGEKIGTYVSNTSAEGHHHHHH	soluble
MSLTAYMDHKNLANEVIDDARAREITDGVHRVLDRIAAAEEQAGREAGSVRLLAATKTRDIGEIMAAIDAGVRMIGENRPQEVTAKAEGLARRCAERGFSLGVAGAAPDAAAEHIPFHLIGQLQSNKIGKVLPVVDTIESVDSIDLAEKISRRAVARGITVGVLLEVNESGEESKSGCDPAHAIRIAQKIGTLDGIELQGLMTIGAHVHDETVIRRGFSHLRKTRDLILASGEPGTDRCRELSMGMTGDMELAIAEGSTIVRVGTAIFGERAFIEGHHHHHH	soluble
MSLTDAPDLILHRGLFTTLDRSNPIASAVAISGGRFSAVGHDREVLPLAGPSTKVIDLKGRRVLPGLIDNHLHIIRGGLNFNMELRWDGVRSLADAMNMLKRQVAITPPPQWVRVVGGFTEHQFAEKRLPTIEELNAVAPDTPVFLLHLYDRAILNGAALRAVGYTRDTPEPPGGEITRDANGNPTGLLLAKPNANILYATLAKGPKLPFDYQVNSTRHFMRELNRLGVTGAIDAGGGFQNYPDDYAVIQKLDEEGLLTIRLAYNLFTQKPKGEKDDFLNWTKTSKYKQGNDYFRHNGAGEMLVFSAADFEDFRVPRPDMPPEMEGELEEVVRILVQNKWPWRLHATYDETISRALDVFEKVNQDTPLDGLHWFFDHAETISDRSIDRIAALGGGIAVQHRMAYQGEYFVERYGFGAAEATPPVRRILDSGVKVSAGTDATRVASYNPWVSLSWLVTGRTVGGLRITPQRNCLDRETALRMWTENVTWFSNEEGNKGRVAVGQLADVVVPDRDYFSCSEAEIADTTSLLTMVGGKVVYGAGEFAGLDDSEGHHHHHH	not soluble
MSLTDHGFSFCAHAEQYAIIGSLSQLETSDNRDCDIRRPALNRCMAEKGTLRPEAAQIFQRLEALGLKQRELAQALGIEENKISKVRAGERQFKGAELLAAYEWLDQREAEAHMPRLSRVAAVGQQVIPATPVEGEVVQIQKLDLSLSMGPGTLIDGYVESELVSFDLGFVRLFTRAASDHLRLVTGIGDSMEPTLKWGDLILIDTTDRMLSKQDGIYWINLYGAAGIKRLRAIGPRTILVKSDNPGVDDQEVEAEDLRIEGRAIWATRGLEGHHHHHH	soluble
MSLTDNLQDLISTKLAAAIANPLFPAVDSQLRAGRHISLDQLDNHAFLMDFQGELDSFYRRYNVELIRAPEGFFYLRPKATTLIARSVLTELEMLVGKVLCYLYLSPERLAQQGIFSTQEVYDELLNLADENKLLKAVNQRSSGSDLDKQKLAEKVRAALNRLRRLGMIHGVGEQNSGKFTIAEAVFRFGAEVRAGDDPREAQLRPIRDGRPATPGFWAAGKTRSATGGEHRDEGGDEGGDEERAEGHHHHHH	soluble
MSLTDNQDPLQLVQEFRSIAGEAALVCAEETEDQRDRTQFVNFELEAKLWYLVELLVSFRTSDAPMDDIELHDYNSNAVFKKAQLQEDPELYVVWLIIAWIQENLTVSPRPAELPTTKWSNTLLAGGLKSSDLDCPLREEGVQIHPKDNQDDHCFYKYMYELILAGKYEEVRRECEYSDNLTLGMIMCGLEDYVDPRIDLELAGDYEGHQGIKKRALWRRAVYALSRNPNLDKYEAAIYAFLSGTIPQDIDEQQLDWERMLLVYLNQIWNIKIENYLLEKERINKEELIEQMPSQPLSLSAVLNIVASKHVEESEHPIRVLMGAVILNTISPAVKSFIDMLLDAVKGVDQENDLLSEPYILRILTHLVIFLDKACPGVIEEGDKSKLVTTYVSLLNLYEQYDLVPVYISCLDEQDIMEAYSFFLSNLVGDSSRERQLELCYFFQLPTANILKRTAQRIFNDTEPHYNLADTVTMNSEVTDIDLHLISAVDWLMKGRLHVDAVESIIALCRRFLANGKVNSLSTFFEQHNMDDLIKNYELDQLSAKEEYPEDRFVQEIGQYTKLITGFRQYKNWENSSHTVSSSKNTSALLQQFQAFASTLRGLVTEFLVELTEHTDMPSEDRDMLYNIRSLYTPYLLIELHNSYTSTAEKLGVPSFLQEAVNLSTMVANETDKIYLLFQNSGKLKEYLHLVAKAVALIGHEGHHHHHH	not soluble
MSLTDPVKIYQRKWIVGGWMKRSEIRKALEAWFDVERYEAIETLTLQQFYVEVERRILAYRMLLSRNTIPTFNRLMLDDYRNKILSGEIFFSGDTATIGHELARTYAVNPTTRSHAQFYAKTLSLTEATPELSGLSQSEFLSEYLKETSLNNLSRITVDIHLEEASTEEIIEHLKVLIPQWKRQLKMTSPAPREYRFGKSTFRKIIDYRLIPMMDLIFWGEDNGIKIPLSLISSLLHEDSDNDRDEGMLKATDYPLAMAFLTDASYLKSLEDYMMENNHLKDSPVEKHVEDDRNEGHHHHHH	not soluble
MSLTELTGNPRHDQLLMLIAERGYMNIDELANLLDVSTQTVRRDIRKLSEQGLITRHHGGAGRASSVVNTAFEQREVSQTEKKKAIAEAVADYIPDGSTIFITIGTTVEHVARALLNHNHLRIITNSLRVAHILYHNPRFEVMVPGGTLRSHNSGIIGPSAASFVADFRADYLVTSVGAIESDGALMEFDVNEANVVKTMMAHARNILLVADHTKYHASAAVEIGNVAQVTALFTDELPPAALKSRLQDSQIEIILPQEDALEHHHHHH	soluble
MSLTELYIHNGRDVSGAPVAVLITDGVIAEVGTELTVPVGCPTLDAQGCYITAGWIDDHTHCNAHAALYYDDADAIGYRTGVTTVIDAGSTGADNVADLYQQAHRAATNVYALLNIARTGIVAQDELADLNQLSFSALRTAIKRYPDFIVGLKVRVSKSVVGDNGVEPLRVAKQYQADLTVQLPLMVHIGSNPPELAAIIALMRPGDVLTHCFNGKPNGIVNSTGEVAQYVRKAYQKGLIFDVGHGTDSFSFRTAALARTAHLFPQTLSSDIYYRNRLNGPVYSLAVCVEKLLLLGYRLEEIIPMITTNPARIFKLTHKGQLCRGYDADLTIFQTVTAPQIVVDSTGEERIAPTQVIPTYSVIAGRVYTCGVDKEGHHHHHH	soluble
MSLTEPEDPSRERLKHHFAQRVIHQARQILEIWQRLQRSEWSTTDMSELCEANLRLLRFAERFEQPEHTQLARSISQSLEAVDANRGRLSSNLITDLNRLMQRLSRTGLRHGDQLEQTFLPPLRKPIYVMLQDHDRAERLAKQLEFFGLSAQSLDSIPAFRSSMVERLPAAIVIDVDFCGAGMGLTLAAEAQVGLEQKLPLLFFSLHETDTPTRLAAVRAGGQEFLTGTLEASSLLEKIEVLTCVAQYEPYKVLIIDDSRAQALHTERLLNSAGIVTRTLIEPIQAMAELADFQPDLIILDMYMPACTGTELAKVIRHNDRYVSVPIIYLSAEDDLDKQLDAMSEGGDDFLTKPIKPRHLITTVRNRAARARNLKARMVRDSLTGLYNHTHILQLLEDCSFRARREGKPLSFAMLDIDHFKRVNDSHGHPMGDRVIKSLALFLKQRLRKTDFIGRYGGEEFAIVMPDTDQDAACKVLDEIRQRFAEIHYPAQPQDLWCTFSAGVVEMQEDSDSLIMASQADEALYRAKHGGRNRVQAARSSQSAIFSSESTDSVITLEGHHHHHH	soluble
